From the supplement of paper PMC10567573

B1: MFF (parent)
chain: MAEISRIQYEMEYTEGISQRMRVP
B2: FBXO3 (parent)
chain: DEEERRRRVFDVPIRRRRCSRLF

Variants of: B1
Test: protein stability index of a GFP-peptide fusion (GPS, HEK-293T) (PSI 1-6); higher = more stable
Details: c terminus: a fixed tail appended
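Note: lentivirally expressed fusions sorted by FACS into six bins by GFP to DsRed ratio, PSI derived from sequencing read proportions per bin multiplied by bin number.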

Variant	protein stability index
I4E	4.08
I4K	3.58
I4F	2.56
I4S	3.42
I4Q	3.8
I4R	3.31
I4M	3.56
I4P	3.55
I4H	3.34
I4T	3.86
I4V	2.74
I4A	3.38
I4C	3.6
I4L	2.99
I4Y	2.8
I4G	3.4
I4D	3.41
I4N	3.71
I4W	2.89
E3L	1.77
E3S	1.85

Variant	protein stability index
E3A	1.85
E3D	2.58
E3F	1.76
E3R	2.39
E3W	1.57
E3K	2.3
E3N	2.41
E3T	2.07
E3P	3.31
E3C	2.45
E3Q	2.07
E3I	1.7
E3M	1.91
E3H	2.93
E3Y	2.01
E3V	1.98
E3G	2.96
M1P	3.45
M1A	2.92
M1G	3.14
M1Y	1.9

Variant	protein stability index
M1Q	3.56
M1V	2.85
M1E	4.04
M1H	2.92
M1W	2.35
M1F	1.97
M1C	1.85
M1K	2.97
M1R	3.1
M1S	3.01
M1N	3.16
M1T	3.28
M1I	2.36
M1L	2.55
M1D	3.56
A2C	2.25
A2Q	2.76
A2K	2.77
A2P	3.33
A2W	1.51
A2R	2.54

Variant	protein stability index
A2M	2.03
A2H	2.45
A2T	2.74
A2I	2.17
A2N	3.09
A2D	2.83
A2V	1.96
A2F	1.58
A2L	1.86
A2E	3.33
A2Y	1.95
A2G	3.03
A2S	2.5
S5C	1.88
S5D	3.39
S5E	2.95
S5F	1.71
S5G	2.27
S5H	2.47
S5A	1.72

Variants of: B2
Test: as above
Details: c terminus: native

Variant	protein stability index
S20A	2.15
S20F	2.77
S20Q	2.69
S20Y	2.22
S20P	2.51
S20N	2.61
S20K	2.69
S20D	2.2
S20R	3.35
S20M	2.04
S20L	2.36
S20I	2.05
S20W	2.47
S20C	4.36
S20H	2.68
S20T	1.91
S20E	3.04
S20G	3.48
S20V	2.06
D11P	3.34
D11T	2.84
D11Y	1.67
D11F	1.89
D11I	2.93
D11S	2.75
D11C	1.53

Variant	protein stability index
D11L	2.33
D11H	2.19
D11V	1.99
D11A	2.73
D11K	2.51
D11Q	2.4
D11E	2.68
D11R	2.25
D11N	3.06
D11M	2.08
D11W	1.76
D11G	2.65
R18Y	1.95
R18Q	1.78
R18F	1.57
R18W	2.31
R18N	1.76
R18V	1.83
R18L	2.68
R18K	2.83
R18A	1.69
R18P	1.7
R18H	2.18
R18I	1.34
R18M	2.31
R18E	2.38

Variant	protein stability index
R18C	2.29
R18T	1.7
R18S	2.26
R18G	3.74
R17V	2.06
R17K	3.27
R17L	1.84
R17N	2.09
R17Y	1.58
R17G	1.98
R17E	2.27
R17H	2.21
R17S	1.77
R17A	2.5
R17D	2.17
R17M	2.27
R17T	2.82
R17Q	2.5
R17W	2.83
R17C	1.71
R17F	1.87
R17I	1.84
R17P	1.96
R15N	2.21
R15Q	2.27
R15F	1.93

Variant	protein stability index
R15A	2.88
R15D	2.27
R15L	1.98
R15P	2.56
R15Y	1.88
R15H	1.85
R15K	3.65
R15V	2.78
R15C	2.99
R15M	1.72
R15E	2.44
R15I	2.31
R15S	2.39
R15G	2.74
R15T	2.72
V12S	3.24
V12P	2.98
V12Y	2.78
V12F	2.6
V12W	2.66
V12H	2.69
V12K	3.25
V12N	2.28
V12D	2.71
V12Q	3.24
V12C	1.73

Variant	protein stability index
V12M	2.47
V12A	3.05
V12I	2.32
V12T	2.75
V12E	2.81
V12R	3.62
V12L	2.61
V12G	3.26
P13E	2.15
P13T	1.44
P13H	2.95
P13N	2.07
P13S	2.23
P13L	3.65
P13K	2.9
P13Y	2.8
P13D	2.15
P13R	1.72
P13M	2.19
P13V	2.89
P13F	3.42
P13G	2.24
P13W	2.87
P13C	2.98
P13A	2.46
P13Q	2.2

Variant	protein stability index
I14K	3.78
I14W	2.7
I14Q	2.53
I14D	2.14
I14M	2.63
I14S	2.49
I14L	2.56
I14A	2.64
I14V	3.27
I14R	3.33
I14E	2.46
I14F	2.2
I14H	2.48
I14G	3.04
I14Y	2.4
I14N	2.25
I14P	3.4
I14C	2.38
I14T	3.66
F23L	4.08
F23Q	2.98
F23T	2.4
F23M	2.45
F23A	1.35
F23K	4.1
F23Y	3.25

Variant	protein stability index
F23W	3.56
F23C	2.65
F23V	3.28
F23S	1.03
F23P	2.6
F23G	2.86
F23I	1.85
F23N	2.48
F23H	2.77
F23D	2.71
F23R	3.91
L22Q	1.55
L22W	3.03
L22D	4.94
L22N	2.09
L22T	2.46
L22F	4.44
L22G	3.06
L22H	2.94
L22P	3.85
L22C	2.71
L22E	4.92
L22M	2.28
L22S	2.17
L22Y	2.63
L22R	3.97

Variant	protein stability index
L22V	2.12
L22A	3.3
L22K	4.67
L22I	2.82
C19R	4.59
C19L	3.54
C19Q	4.39
C19K	4.77
C19H	4.39
C19I	3.49
C19N	4.56
C19Y	3.36
C19D	3.44
C19V	3.22
C19E	1.83
C19G	1.93
C19F	3.76
C19S	4.15
C19T	3.63
C19A	3.62
C19P	2.56
C19W	3.64
C19M	3.23
R21L	2.6
R21D	3.91
R21W	2.53

Variant	protein stability index
R21I	2.93
R21F	3.04
R21S	4.35
R21A	4.48
R21Y	3.08
R21T	3.85
R21M	2.87
R21Q	3.62
R21K	3.27
R21G	2.36
R21N	3.99
R21H	3.59
R21V	2.98
R21P	2.72
R21C	4.79
R21E	3.46
F10P	4.32
F10V	3.94
F10W	2.09
F10R	3.85
F10Y	3.22
F10T	4.33
F10Q	4.56
F10S	4.54
R16L	2.19
R16S	2.28

Variant	protein stability index
R16V	2.27
R16E	2.55
R16N	2.21
R16W	1.99
R16G	3.45
R16F	1.93
R16C	1.91
R16K	3.51
R16Q	2.24
R16T	2.19
R16H	2.23
R16Y	1.72
R16A	2.53
R16M	2.21
R16I	2.2
R16D	2.22
R16P	3.45
